Results published in publication PMC5299495, “Co‐immobilized Phosphorylated Cofactors and Enzymes as Self‐Sufficient Heterogeneous Biocatalysts for Chemical Processes” (Angewandte Chemie (International Ed. in English), 2016).

Substrate: NC(=O)c1ccc[n+]([C@@H]2O[C@H](COP(=O)(O)OP(=O)(O)OC[C@H]3O[C@@H](n4cnc5c(N)ncnc54)[C@H](O)[C@@H]3O)[C@@H](O)[C@H]2O)c1
Test: steady-state kinetics, soluble enzyme and soluble NAD+
Assay type: biochemical, [Candida] boidinii
Conditions: free enzyme; co-substrate formate

B1: Cb‐FDH ([Candida] boidinii) (protein)
chain: MKIVLVLYDAGKHAADEEKLYGCTENKLGIANWLKDQGHELITTSDKEGETSELDKHIPDADIIITTPFHPAYITKERLDKAKNLKLVVVAGVGSDHIDLDYINQTGKKISVLEVTGSNVVSVAEHVVMTMLVLVRNFVPAHEQIINHDWEVAAIAKDAYDIEGKTIATIGAGRIGYRVLERLLPFNPKELLYYDYQALPKEAEEKVGARRVENIEELVAQADIVTVNAPLHAGTKGLINKELLSKFKKGAWLVNTARGAICVAEDVAAALESGQLRGYGGDVWFPQPAPKDHPWRDMRNKYGAGNAMTPHYSGTTLDAQTRYAEGTKNILESFFTGKFDYRPQDIILLNGEYVTKAYGKHDKK
notes: free soluble enzyme
Question: Which Km does the source give for B1 here?
Answer: 85 ± 0.9 µM
